T1: Human CD3eg linker (human)
T1 construct: single-chain construct; also called recombinant human CD3
T1 chain: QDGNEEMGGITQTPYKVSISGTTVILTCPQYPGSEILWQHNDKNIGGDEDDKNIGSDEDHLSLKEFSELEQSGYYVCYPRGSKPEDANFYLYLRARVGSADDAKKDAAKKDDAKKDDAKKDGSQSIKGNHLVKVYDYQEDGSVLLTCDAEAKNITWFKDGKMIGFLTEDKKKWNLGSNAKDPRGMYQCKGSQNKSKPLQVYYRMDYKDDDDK

B1: dBBDu183H A100K/dBBDu072L (antibody, name in Kabat numbering, V domains shown)
VH: QVQLVESGGGLVQPGRSLRLSCAASGFTFSNAWMHWVRQAPGKGLEWVAQIKDKGNAYAAYYAPSVKGRFTISRDDSKNSIYLQMNSLKTEDTAVYYCHYVHYASKSTVLPAFGVDAWGQGTTVTVSS
VL: DIVMTQSPLSLPVTPGEPASISCQASQELVHMNRNTYLHWYQQKPGQAPRLLIYKVSNRFPGVPDRFSGSGSGTDFTLKISRVEAEDVGVYYCAQGTSVPFTFGQGTKLEIK
B2: dBBDu183H A100fG/dBBDu072L (antibody, name in Kabat numbering, V domains shown)
VH: QVQLVESGGGLVQPGRSLRLSCAASGFTFSNAWMHWVRQAPGKGLEWVAQIKDKGNAYAAYYAPSVKGRFTISRDDSKNSIYLQMNSLKTEDTAVYYCHYVHYASASTVLPGFGVDAWGQGTTVTVSS
VL: DIVMTQSPLSLPVTPGEPASISCQASQELVHMNRNTYLHWYQQKPGQAPRLLIYKVSNRFPGVPDRFSGSGSGTDFTLKISRVEAEDVGVYYCAQGTSVPFTFGQGTKLEIK
B3: dBBDu183H A100Q/dBBDu072L (antibody, name in Kabat numbering, V domains shown)
VH: QVQLVESGGGLVQPGRSLRLSCAASGFTFSNAWMHWVRQAPGKGLEWVAQIKDKGNAYAAYYAPSVKGRFTISRDDSKNSIYLQMNSLKTEDTAVYYCHYVHYASQSTVLPAFGVDAWGQGTTVTVSS
VL: DIVMTQSPLSLPVTPGEPASISCQASQELVHMNRNTYLHWYQQKPGQAPRLLIYKVSNRFPGVPDRFSGSGSGTDFTLKISRVEAEDVGVYYCAQGTSVPFTFGQGTKLEIK
B4: dBBDu183H A100fH/dBBDu072L (antibody, name in Kabat numbering, V domains shown)
VH: QVQLVESGGGLVQPGRSLRLSCAASGFTFSNAWMHWVRQAPGKGLEWVAQIKDKGNAYAAYYAPSVKGRFTISRDDSKNSIYLQMNSLKTEDTAVYYCHYVHYASASTVLPHFGVDAWGQGTTVTVSS
VL: DIVMTQSPLSLPVTPGEPASISCQASQELVHMNRNTYLHWYQQKPGQAPRLLIYKVSNRFPGVPDRFSGSGSGTDFTLKISRVEAEDVGVYYCAQGTSVPFTFGQGTKLEIK
B5: dBBDu183H A100N/dBBDu072L (antibody, name in Kabat numbering, V domains shown)
VH: QVQLVESGGGLVQPGRSLRLSCAASGFTFSNAWMHWVRQAPGKGLEWVAQIKDKGNAYAAYYAPSVKGRFTISRDDSKNSIYLQMNSLKTEDTAVYYCHYVHYASNSTVLPAFGVDAWGQGTTVTVSS
VL: DIVMTQSPLSLPVTPGEPASISCQASQELVHMNRNTYLHWYQQKPGQAPRLLIYKVSNRFPGVPDRFSGSGSGTDFTLKISRVEAEDVGVYYCAQGTSVPFTFGQGTKLEIK
B6: dBBDu183H A100fD/dBBDu072L (antibody, name in Kabat numbering, V domains shown)
VH: QVQLVESGGGLVQPGRSLRLSCAASGFTFSNAWMHWVRQAPGKGLEWVAQIKDKGNAYAAYYAPSVKGRFTISRDDSKNSIYLQMNSLKTEDTAVYYCHYVHYASASTVLPDFGVDAWGQGTTVTVSS
VL: DIVMTQSPLSLPVTPGEPASISCQASQELVHMNRNTYLHWYQQKPGQAPRLLIYKVSNRFPGVPDRFSGSGSGTDFTLKISRVEAEDVGVYYCAQGTSVPFTFGQGTKLEIK
B7: dBBDu183H A100S/dBBDu072L (antibody, name in Kabat numbering, V domains shown)
VH: QVQLVESGGGLVQPGRSLRLSCAASGFTFSNAWMHWVRQAPGKGLEWVAQIKDKGNAYAAYYAPSVKGRFTISRDDSKNSIYLQMNSLKTEDTAVYYCHYVHYASSSTVLPAFGVDAWGQGTTVTVSS
VL: DIVMTQSPLSLPVTPGEPASISCQASQELVHMNRNTYLHWYQQKPGQAPRLLIYKVSNRFPGVPDRFSGSGSGTDFTLKISRVEAEDVGVYYCAQGTSVPFTFGQGTKLEIK
B8: dBBDu183H A100W/dBBDu072L (antibody, name in Kabat numbering, V domains shown)
VH: QVQLVESGGGLVQPGRSLRLSCAASGFTFSNAWMHWVRQAPGKGLEWVAQIKDKGNAYAAYYAPSVKGRFTISRDDSKNSIYLQMNSLKTEDTAVYYCHYVHYASWSTVLPAFGVDAWGQGTTVTVSS
VL: DIVMTQSPLSLPVTPGEPASISCQASQELVHMNRNTYLHWYQQKPGQAPRLLIYKVSNRFPGVPDRFSGSGSGTDFTLKISRVEAEDVGVYYCAQGTSVPFTFGQGTKLEIK
B9: dBBDu183H A100fE/dBBDu072L (antibody, name in Kabat numbering, V domains shown)
VH: QVQLVESGGGLVQPGRSLRLSCAASGFTFSNAWMHWVRQAPGKGLEWVAQIKDKGNAYAAYYAPSVKGRFTISRDDSKNSIYLQMNSLKTEDTAVYYCHYVHYASASTVLPEFGVDAWGQGTTVTVSS
VL: DIVMTQSPLSLPVTPGEPASISCQASQELVHMNRNTYLHWYQQKPGQAPRLLIYKVSNRFPGVPDRFSGSGSGTDFTLKISRVEAEDVGVYYCAQGTSVPFTFGQGTKLEIK
B10: dBBDu183H A100V/dBBDu072L (antibody, name in Kabat numbering, V domains shown)
VH: QVQLVESGGGLVQPGRSLRLSCAASGFTFSNAWMHWVRQAPGKGLEWVAQIKDKGNAYAAYYAPSVKGRFTISRDDSKNSIYLQMNSLKTEDTAVYYCHYVHYASVSTVLPAFGVDAWGQGTTVTVSS
VL: DIVMTQSPLSLPVTPGEPASISCQASQELVHMNRNTYLHWYQQKPGQAPRLLIYKVSNRFPGVPDRFSGSGSGTDFTLKISRVEAEDVGVYYCAQGTSVPFTFGQGTKLEIK
B11: dBBDu183H A100Y/dBBDu072L (antibody, name in Kabat numbering, V domains shown)
VH: QVQLVESGGGLVQPGRSLRLSCAASGFTFSNAWMHWVRQAPGKGLEWVAQIKDKGNAYAAYYAPSVKGRFTISRDDSKNSIYLQMNSLKTEDTAVYYCHYVHYASYSTVLPAFGVDAWGQGTTVTVSS
VL: DIVMTQSPLSLPVTPGEPASISCQASQELVHMNRNTYLHWYQQKPGQAPRLLIYKVSNRFPGVPDRFSGSGSGTDFTLKISRVEAEDVGVYYCAQGTSVPFTFGQGTKLEIK
B12: dBBDu183H A100R/dBBDu072L (antibody, name in Kabat numbering, V domains shown)
VH: QVQLVESGGGLVQPGRSLRLSCAASGFTFSNAWMHWVRQAPGKGLEWVAQIKDKGNAYAAYYAPSVKGRFTISRDDSKNSIYLQMNSLKTEDTAVYYCHYVHYASRSTVLPAFGVDAWGQGTTVTVSS
VL: DIVMTQSPLSLPVTPGEPASISCQASQELVHMNRNTYLHWYQQKPGQAPRLLIYKVSNRFPGVPDRFSGSGSGTDFTLKISRVEAEDVGVYYCAQGTSVPFTFGQGTKLEIK
B13: dBBDu183H A100T/dBBDu072L (antibody, name in Kabat numbering, V domains shown)
VH: QVQLVESGGGLVQPGRSLRLSCAASGFTFSNAWMHWVRQAPGKGLEWVAQIKDKGNAYAAYYAPSVKGRFTISRDDSKNSIYLQMNSLKTEDTAVYYCHYVHYASTSTVLPAFGVDAWGQGTTVTVSS
VL: DIVMTQSPLSLPVTPGEPASISCQASQELVHMNRNTYLHWYQQKPGQAPRLLIYKVSNRFPGVPDRFSGSGSGTDFTLKISRVEAEDVGVYYCAQGTSVPFTFGQGTKLEIK
B14: dBBDu183H A100fF/dBBDu072L (antibody, name in Kabat numbering, V domains shown)
VH: QVQLVESGGGLVQPGRSLRLSCAASGFTFSNAWMHWVRQAPGKGLEWVAQIKDKGNAYAAYYAPSVKGRFTISRDDSKNSIYLQMNSLKTEDTAVYYCHYVHYASASTVLPFFGVDAWGQGTTVTVSS
VL: DIVMTQSPLSLPVTPGEPASISCQASQELVHMNRNTYLHWYQQKPGQAPRLLIYKVSNRFPGVPDRFSGSGSGTDFTLKISRVEAEDVGVYYCAQGTSVPFTFGQGTKLEIK

Molecular target: T1, Human CD3eg linker
Assay: SPR, vs unmutated H183/L072

Compared with B1, B2 is lower in “fold change of affinity” value: 1.9 fold for the first, 1.5 fold for the second.

Compared with B3, B4 is higher in “fold change of affinity” value: 0.8 fold for the first, 1.2 fold for the second.

Compared with B5, B6 is lower in “fold change of affinity” value: 0.8 fold for the first, 0.4 fold for the second.

Compared with B7, B8 is higher in “fold change of affinity” value: 1.1 fold for the first, 1.9 fold for the second.

First: B9
Second: B10
The “fold change of affinity” value of the first is lower: 0.5 fold for the first, 1.2 fold for the second.

Compared with B11, B12 is higher in “fold change of affinity” value: 1.7 fold for the first, 2.1 fold for the second.

Going from B13 to B14, the “fold change of affinity” value rises from 0.9 fold to 1.1 fold.

Reference: US20210388087A1 (Chugai, published 2021)
